B1: TPR t1 (parent)
chain: GACCAAUCUGCCCUCAGAGCUCGAGAACAUCUUCGGAUGCAGAGGAGGCAGGCUUCGGUGGCGCGAUAGCGCCAACGUCCUCAACCUCCAAUGCAUCCCACCACAUGAUGAUGCCUGAAGAGCCUUGGUUUUUUG

Variants of: B1
Assay: polymerase ribozyme fitness, log enrichment relative to wild type (log ratio); higher = more active; in vitro selection for triplet polymerase activity
Method in brief: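 Fitness is a logarithmic measure of how a genotype enriched relative to the wild type, with replicate averages weighted by inverse variance. The logarithm uses base 2, and enrichment came from Illumina sequencing of input and output libraries. Those libraries were PCR-built, transcribed mutants of each subunit of a heterodimeric triplet polymerase ribozyme, passed through one triplicate in vitro selection round that included frozen incubation at −7 °C, gel excision of extended constructs and streptavidin-bead capture. Genotypes were kept only if they had ≥10 input reads and ≥1 read per output.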

Variant | polymerase ribozyme fitness (log ratio)
GACCAAUCUGCCCUCAGAGCUCGAGAACAUCUUCGGAUGCAGAGGAGGCAGGGUUCGGUGACGCGAUAGCGCCAACGUCCUCAACCUACAAUGCAUCCCACCACAUGAUGUGGCCUGAAGAGCAUUGGUUUUUUG [C53G G61A C88A A111U U112G C124A] | -1
GACCAAUCUGCCCUCAGAGCUCGAGAACAUCUUCGGAUGCAGAGGAGGCAGGGUUCGGUGGCGCGAUAUCGCCAACGUCCUCAACCUCCAAUGCAUCCCACCACAUGAUGAUGCCUGAAGAGCCUUGGUUUUUUG [C53G G69U] | -0.127
GACCAAUCUGCCCUCAGAGCUCGAGAACAUCUUCGGAUGCAGAGGAGGCAGGGUUCGGUUGCGCUAUAGCGCCAACGUCCUCAACCUCCAAUGCAUCCCACCAUAUGAUGAUGCCUGAAGAGCCUUGGUUUUUUG [C53G G60U G65U C104U] | -7.04
GACCAAUCUGCCCUCAGAGCUCGAGAACAUCUUCGGAUGCAGAGGAGGCAGGGUUCGGUGGCACGAUAGCGCCAACGUCCUCAACCUCCAAUGCGUCCCACCACAUGAUAAUGCCUGAAGAGCCCUGGUUUUUUG [C53G G63A A95G G110A U125C] | -4.78
GACCAAUCUGCCCUCAGAGCUCGAGAACAUCUUCGGAUGCAGAGGAGGCAGGGUUCGGUGGCCCGAUAGCGCCAACGUCCUCAACCUCCACUGCAUCCCACCACAUGAUGAUGCCUGCAGAGCCUUGGUUUUUUG [C53G G63C A91C A118C] | -4.54
GACCAAUCUGCCCUCAGAGCUCGAGAACAUCUUCGGAUGCAGAGGAGGCAGGGUUCGGUGGCGCGAUAGCGCCAACGUCCUCAACCUCCAAUGCAUCCCACCACAUGAUGAUGCCUGAAGAGCCAUGGUUUUUUG [C53G U125A] | -2.2
GACCAAUCUGCCCUCAGAGCUCGAGAACAUCUUCGGAUGCAGAGGAGGCAGGGUUCGGUGGCGCGAUAGCGCCAACAUCCUCAACCUCCAAUGCAUCCCACUACAUGAUGAUGCCUGAACAGCCAUGGUUUUUUG [C53G G77A C102U G120C U125A] | -2.26
GACCAAUCUGCCCUCAGAGCUCGAGAACAUCUUCGGAUGCAGAGGAGGCAGGGUUCUGUGGCGCGAUAGCGCCAACGUCCUCAACCUCCAAUGCAUCCCACCACAUGAUGAUGCCUGAAGAGCCUUGGUUUUUUG [C53G G57U] | 0.0545
GACCAAUCUGCCCUCAGAGCUCGAGAACAUCUUCGGAUGCAGAGGAGGCAGGGUUCGGUGGCGCGAUAGCGCCAACGUCCUCAACCUCCAAUGCAUCCCACCACAUGAUGAUGCCUGAAGAGCCUUUGUUUUUUG [C53G G127U] | -1.46
GACCAAUCUGCCCUCAGAGCUCGAGAACAUCUUCGGAUGCAGAGGAGGCAGGGUUCGGUGGCGCGAUAGCGCCAACGUCCUCAACCUCCAAUGCAUCCCACCACAUGAUGAUGCCUGAAAAGCCUUGGUUUUUUG [C53G G120A] | 0.668
GACCAAUCUGCCCUCAGAGCUCGAGAACAUCUUCGGAUGCAGAGGAGGCAGGUUUCGGUGGCGGGAUAGCGCUAACGUCCUCAACCUCCCAUGCAUCCCACCACAUGAUGAGGCCUGAAGAGCCUUGGUUUUUUG [C53U C64G C73U A90C U112G] | -7.28
GACCAAUCUGCCCUCAGAGCUCGAGAACAUCUUCGGAUGCAGAGGAGGCAGGGUUCGGUGGCGCGAUAGCGCCAACGUCCACAACCUCCAAUGCAUCCCACCACAUGAUGAUGCCUGAAGAGCCUUGGUUGUUUG [C53G U81A U131G] | -0.825
GACCAAUCUGCCCUCAGAGCUCGAGAACAUCUUCGGAUGCAGAGGAGGCAGGUUUCGGUGGCGCGAUAGCGGCAACGUCCUCAACCUUCAAUGCAUCCCACCACGUGAUGAUGCCUGAAGAGCCUUGGUUUUUUG [C53U C72G C88U A105G] | -2.32
GACCAAUCUGCCCUCAGAGCUCGAGAACAUCUUCGGAUGCAGAGGAGGCAGGGUUCGGUGGCGCGAUAGCGCCAACGUCCUCAACCUCCAAUGCAUCCCACAACAUGAUGAUGCCUGAAGAGCCUUGGUUUUUUG [C53G C102A] | -2.97
GACCAAUCUGCCCUCAGAGCUCGAGAACAUCUUCGGAUGCAGAGGAGGCAGGGUUCGGUGGCGCGAUAGCGCCAACGUCCUCAACCUCCAAUGCAUCCCACCACAUGAUGAUGCUUGAAGAGCCUUGGUUUUUUG [C53G C115U] | -1.56
GACCAAUCUGCCCUCAGAGCUCGAGAACAUCUUCGGAUGCAGAGGAGGCAGGGUUCGGUGGCACGAUAGCGCCAACGUCCUCAACCUCCAAUGCAUCCCACCACAUGAUGAUGCCUGAAGAGCCUUGGUUUUUUG [C53G G63A] | -2.58
GACCAAUCUGCCCUCAGAGCUCGAGAACAUCUUCGGAUGCAGAGGAGGCAGGUUUCGGUGGCGCGAUAGCGCCAACGUCCUCAACCUCCAAUGCAUCCCACCACCUGAUGAUGCCUGAACAACCUUGGAUUUUUG [C53U A105C G120C G122A U129A] | -5.42
GACCAAUCUGCCCUCAGAGCUCGAGAACAUCUUCGGAUGCAGAGGAGGCAGGGUUCGAUGGCGCGAUAGCGCCAACGUCCUCAACCUCCAAUGCAUCCCACCACAUGAUGAUGCAUGAAGAGCCUUGGUUUUUUG [C53G G58A C115A] | -0.718
GACCAAUCUGCCCUCAGAGCUCGAGAACAUCUUCGGAUGCAGAGGAGGCAGGUUUCGGUGGCGAGAUAGCGUCAACGUCCUCAACCUCCAAUGCCUCCCACCACCUGAUGAUGCCUGAAGAUGCUUGGUUUUUUG [C53U C64A C72U A95C A105C G122U C123G] | -6.4
GACCAAUCUGCCCUCAGAGCUCGAGAACAUCUUCGGAUGCAGAGGAGGCAGGGUUCGGUGCCGCGCUAGCGCCAACGUCCUCAACCUCCAAUGCAUCCCACCACAUGAUGAUGCCUGAAGAGCCUUGGUUUUUUG [C53G G61C A66C] | -2.24
GACCAAUCUGCCCUCAGAGCUCGAGAACAUCUUCGGAUGCAGAGGAGGCAGGUUUCGGUGGGGCGAUAGCGCCAACGUCCUCAACCUCCAAUGCAUCCCACCACAUGAUGAUGCCUGAAGAGCCUUGGUUUUUUG [C53U C62G] | -1.49
